Laboratory results as given in the nanobody polyreactivity screen of Harvey et al. (2022).

Test: yeast display, Sf9 membrane polyspecificity reagent, FACS + sequencing; frameworks hold sequencing errors
Summary of the method: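 Polyreactivity labels are assigned by the sorting gate from which each nanobody was recovered. The gates were low and high (top ~1%), set on anti-HA fluorescence for expression and streptavidin fluorescence for reagent binding. Before sorting, galactose-induced (36–48 hours) yeast display cells were stained for 1 hour at 4 °C with 10% biotinylated, detergent-solubilized Sf9 membrane reagent.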

Row | Sequence | polyreactivity (PSR sort gate)
1 | QVQLVESGGGLVQAGGSLRLSSAASGRIFYLNAMGWYRQAPGIERELVAAINTSGDSTYYADSVKGRFTISRDNAKNTVYLQMNSLKPEDTEVYYCAAYVIGPDHFIYDYWGQGTQVTVSS | low polyreactivity
2 | QVQLVESGGALVQAGGSLRLSCAASGFTFFRNAMGWYRQAPGKERELVAAISGSGGSTYYADSVKGRFTISRDNAKNTVYLQMNSLKPEDTAVYYCATYSYPAKVREAYNYWGQGTQVTVSS | low polyreactivity
3 | QVQLVESGGGLVQAGGSLRLSCAASGSTFGYNDMGWYRQAHGKERELVAVIDSGGSTNYADSVKGRFTISRDNAKNTVYLQMNSLKPEDTAVYYCAADRDKGNGADVWYGYDYWGQGTQVTVSS | low polyreactivity
4 | QVQLVESGGGLVQAGGSLRLSCAASGRIFSYYTMGWYRQAPGKERELVAAITGSGGTTYYADSVKGRFTISRDNAKNTVYLQMNSLKPEDTAVYYCAARGYYRWAPYADWRFNYWGQGTQVTVSS | high polyreactivity
5 | QVQLVESGGGLVQAGGSLRLSCAASGRIFYGYAMGWYRQAPGKERELVAAITSRGTSTYYADSVKGRFTISRDTAKNTVYLQMNSLKPEDTAVYYCNAAYGRSFYSKVFSYNYWGQGTQVTVSS | high polyreactivity
6 | QVQLVESGGGLVQAGGSLRLSCAASGSIFDNYAMGWYRQAPGKERELVAAINFSDGDTYYADSVKGRFTISRDNAKNTVYLQMNSLKPEDTAVYYCAAEVWYPPEYYDEYDYWGQGTQVTVSS | low polyreactivity
7 | QVQLVESGGGLVQAGGSLRLSCAASGFTFQRYAMGWYRQAPGKERELVAAISVRGTRTYYADSVKGRFTISRDNAMNTVYLQMNSLKPEDTAVYYCNADWERDVQDDYWGQGTQVTVSS | high polyreactivity
8 | QVQLVESGGGLVQAGGSLRLSCAASGRTFTRYAMGWYRQAPGKERELVAAISGGGGSTYYADSVKGRFTISRDNAKNTVYLQMNSLKPEDTAVYYCAADVTYGTKWAYDYWGQGTQVTVSS | high polyreactivity
9 | QVQLVESGGGLVQAGGSLRLSCAASGSTFFLYGMGWYRQAPGKERELVAAITWNGGSTYYADSVKGRFTISRDNAKNTVYLQMNSLKPEDTAVYYCAADYYGYFSTPYDYWGQGTQVTVSS | low polyreactivity
10 | QVQLVESGGGLVQAGGSLRLSCAASGSIFYDNAMGWYRQAPGKERELVAAIRGRGGSTYYADSVKGRFTISRDNAKNTVYLQMNSLKPEDTAVYYCNALNYRYRKYDYWGQGTQVTVSS | high polyreactivity
11 | QVQLVESGGGLVQAGGSLRLSCAASGRIFPSYDMGWYRQAPGKDRELVATISSRGDSTYYADSVKGRFTISRDNAKNTVYLQMNSLKPEDTAVYYCAAERPFWEYDYWGQGTQVTVSS | low polyreactivity
12 | QVQLVESGAGLVQAGVSLRLSCAASGRTFRSNAMGWYRQAPGKERELVAAISWSGGSTYYADSVKGRFTISRDNAKNTVYLQMNSLKPEDTAVYDCAVGGSGYGRFGGGYARDYWGQGTLVTVSS | high polyreactivity
13 | QVQLVESGGGLVQAGGSLRLICAASGLTFNYYVMGWYRQAPGKERELVAAISYSGGRTYYADSVKGRFTISRDNANNTVYLQMNSLKPEDTAVYFCNVTGHRNSFIYYGGYEYWGQGTQVTVSS | high polyreactivity
14 | QVQLVESGGGLVQAGGSLRLSCAASGSTFKVYAMGWYRQAPGKEMELDAAISRSGGRTYYADSVKGRFTISRDNAKNTVYLQMNSLKPEDTAVYYCNRDYTYSQGHYSGSYDYWGQGTQVTVSS | high polyreactivity
15 | QVQLVESGGGLVQAGGSLRLSCAASGFVWNAMGWYRPAPGTERELVAAINWRGGSTNYADSVKGRFTISRDNAKNTVYLQMNSLKPEDTAVYYCAAYFFHYHFYQAAYDYWGQGTQVTVSS | low polyreactivity
16 | QVQLVESGGGLVQAGGSLRLSCAASGLIFTTYAMGWYRQAPGKERELVAAISSSGDSTYYADSVKGRFTISRDNAKNTVYLQMNSLKPEDTAVYYCAARYYYRGYEFGYWGQGTQVTVSS | high polyreactivity
17 | QVQLVESGGGLVQAGGSLRLSCAASGRIFPYYAMGWYRQAPGKDRELVAAISWSGGRTYYADSVKGRFTISRDYAKNTVYLQMNSLKPDDNAVYFCAAGHSYRPYYYYGEYDYWGQGTQVTVSS | high polyreactivity
18 | QVQLVESGGGLVQAGGSLRLSCAASGSTLPPYVMGRYRQAPGKERELVAAISSSSGSTYYADSVKGRFTISRDNAKNTVYLQRNSLKPEDTAVYYCAAVTGWAREEEYWGQGTQVTVSS | low polyreactivity
19 | QVQLVESGGGLVQAGGSLSLICAASGSTILYNTMGWYRQAPGKERELVATITSRGDRTYYADSVKGRFTISRDNAKNTVYLQMNSLKPDDTAVYYCNAYGGNYPQSYRYYYWGQGTQVTVSS | low polyreactivity
20 | QVQLVESGGGLVQAGGSLRLSCAASGSTFKFNAMGWYRQAPGKETELVATITSRGSRTYYADSVKGRFTISRDNAKNTVYLQMNSLKPEDTAVYYCAARVFRPYGSLYDYWGQGTQVTVSS | high polyreactivity
21 | QVQLVESGGGLVQAGGSLRLSCAASGRTFNSHVMRWYRQAPGKERELVAAISSRGGGTYYADSVKGRFTISRDNAKNTVYLQMNSLNPEDTAVYYCITVVSRSYRDGPPDPYDSWGQGTQVTVSS | high polyreactivity
22 | QVQLVESGGGLVQAGGSLRLSCAASGSTFYYKSMGWYRQAPGKERELVAAITFTGGSTYADSVKGRFTISRDNAKNTVYLQMNSLIPEDTAVYYCAATIQGHDYLGTGYDYWGQGTQVTVSS | low polyreactivity

Row | Sequence | polyreactivity (PSR sort gate)
23 | QVQLVDSGGGLVQAGGSLRLSCAASGGIFGYGMGWYRQAPGKERELVAAITRSGGSTSYADSVKGRFTISRDNAKYTVYLQMNSVKPEDTAVYFCASRTRYSRYKSGYWGQGTQVTVSS | high polyreactivity
24 | QVQLVESGGGLVQAGGSLRLSCAASGSTFYVYAMGWYRQAPGKEREFVAAISFSSGSTYYADSVKGRFTISRDYAKNTVYLQMNSLKPEDTAVYYCAARYRYPRSIGYGYGGAFDYWGQGTQVTVSS | high polyreactivity
25 | QVQLVESGGGLVQAGGSLRLSCAASGSTFGKYAMGWSRPAPGKERELVAAITVNAGRTYYADSVKGRFTISRDNAKNTVYLQMNSLKPEDTAVYYCNADFFTIYDYWGQGTQVTVSS | high polyreactivity
26 | QVQLVESGGGLVQAGGSLRLSCAASGRTFSWYAMGWYRQAPGKERELVAAITSDGSPYYADSVKGRFTISRDNAKNTVYLQMNSLKPEDTAVYYCAADTVYRSYYWGQGTQVTVSS | low polyreactivity
27 | QVQLVESGGGLVQAGGSLRLSCAASGSIFSTYAMGWYRQAPGKERELVAAITTSGGRTYYADSVKGRFTISRDNAKNTVYVQMNSLKPEETAVYYCNAVRGGRYGLDYWGQGTQVTVSS | high polyreactivity
28 | QVQLVESGGGLVKAGGSLRLSCAASGFILRAYAMGWYRQAPGKEREFVAAITRRGGRTYYADSVKGRFTISRDNAKKTVSLQMYSLKPEDTAVYYCNRVERRGTYDYWGQGTQVTVSS | high polyreactivity
29 | QVQLVESGGGLVQAGGSLRLSCAASGGIFSRYAMGWYRQAPGKEREFVAAISFSGASTYYADSVKGRFTISRDNAKNTVYLQMNSLKPEDTAVYYCAAYWDAEGRRYTRLDYWGQGTQVTVSS | low polyreactivity
30 | QVQLVESGGGLVQAGGSLRLSCAASGSIFKYYSMGWYRQAPGKERELVAAITIGGNTNYADSVKGRFTISRDNAKNTVYLQLNSLKPEDTAVYYCATGGYYSAIVYGGYDYWGQGTQVTVSS | low polyreactivity
31 | QVQLVESGGGLVQAGGSLRLSCAASGSIFRRFAMGWYRQAPGKEREFVAAISRSSDNTSYADSVKGRFTISRDNAKNTVYLQMNSLKPEDTAVYYCNADASWYGYWYYYWGQGTQVTVSS | low polyreactivity
32 | QVQLVESGGGLVQAGGSLRLSCAASGSIFRIYAMGWYRQAPGKEREWVAAINSGGITNYADSVKGRFTISRDNAKNTVYLQMNSLKPEDTAVYYCNARQGVYGLYLRAYPYEYWGQATQVTVSS | low polyreactivity
33 | QVQLVESGGGLVQAGGSLRLSCAASGRIFGLNAMGWYRQAPGKETEFVAAITWRGGRTYYADSVKGRFTISRDKANKTVYLQMNSLKPEDTAVYYCAADGGSTLDYFWGQGTQVTVSS | low polyreactivity
34 | QVQLVESGGGLVQAGGSLRLSCAASGFTFSLYTKGWYRQATGKERELVADISDGGITNYADSVKGRFTISRDNAKNTVYLQMHSLKPEDTAVYYCAADYQFLFFWNLFYEDYDYWGQGTQVTVSS | high polyreactivity
35 | QVQLVESGGGLVQAGGSLRLSCAASGNTFKRYAMGRYRQAPGKERELVAAITWRGARTYYADSVKGRLTISRDNAKNTFYLQMNSLKPEDTAVYYCAADGYSGSGPYDYWGQGTQVTVSS | high polyreactivity
36 | QVQLVESGGGLVQAGGSLRLSCAASGYTFRYYAMGWYRQAPGKERELVARITGRAGSTYYADSVKGRFTISRDNAKNTVYLQMNSLKPEDTAVYYCAASIREGFYWGQGTQVTVSS | high polyreactivity
37 | QVQLVESGGGLVQAGGSLRVSCAASGRILNPNAMGWYRQAPGKERELVADISSGGSTYADSVKGRFTISRDNAKNTVYLQMNSLKPEDTAVYYCAKPGYEEFYREYDSWGQGTQVNVSS | low polyreactivity
38 | QVQLVESGGGLVQAGGSHRLSCAASGSTFRVYAMGWYRQAPGKERELVATISWGGGRTYYADSVKGRFTISRDNAKNTVYLQMNSLKPEDTAVYYCAADQRWTTDQPTAGDYWGQGTQVTVSS | low polyreactivity
39 | QVQLVESGGGLVQAGGSLRLSCAASGRYAMGWYRQAPGKVRELVAAISDSDGSTYYADSVKGRFTISRDNAKTNVYLQMNSLKPEDTAVNYCDARSIVRFDSWGQGTQVTVSS | low polyreactivity
40 | QVQLVESGGGLVQAGGSLRLSCAASGSIFSYYAMGWYRQAPGKERELVAVISSSGGRTYYADSVKGRFTISRDNAKNTVYLQMNSLKPEDTAVYYCAAKYRVFYGFDYWGQGTQVTVSS | high polyreactivity
41 | QVQLVESGGGLVQAGGSLRLSCAASGSTFPYYAMGRYRPAPGKEMELVAAISQNGGSSYYADSVKGRFTISRDNAKNTVYLQINSLKPEDTAVYYCNADGVGGEYRLSGYDYWGQGTQVTVSS | low polyreactivity
42 | QVQLVESGGGLVQAGGSLRLSCAASGFTFNYYAMGWYRQAPGKERELVAGITRSGVSTNYADSVKGRFTISRDNAKNTVYLQMNSLKPEDTAVYYCAREEGRRYRGWPYVYAPQHDYWGQGTQVTVSS | high polyreactivity
43 | QVQLVESGGGLVQAGGSLRLSCAASGRTLLYYAMGWYRQAPGKERELVARISTGGGTSYADSVKGRFTISRDNAKNTVYLQMNSLKPEDTAVFYCAAKRSYRRALLTLDYWGHGTQVTVSS | high polyreactivity
